Article doi:10.1101/2025.11.22.689938 (bioRxiv, 2025)

Molecular target: HA-JMJD5 (wildtype, pEF6) (human, UniProt Q8N371 1-416)
Experiment: co-IP

Chain of HA-JMJD5 (wildtype, pEF6) (Q8N371 whole entry): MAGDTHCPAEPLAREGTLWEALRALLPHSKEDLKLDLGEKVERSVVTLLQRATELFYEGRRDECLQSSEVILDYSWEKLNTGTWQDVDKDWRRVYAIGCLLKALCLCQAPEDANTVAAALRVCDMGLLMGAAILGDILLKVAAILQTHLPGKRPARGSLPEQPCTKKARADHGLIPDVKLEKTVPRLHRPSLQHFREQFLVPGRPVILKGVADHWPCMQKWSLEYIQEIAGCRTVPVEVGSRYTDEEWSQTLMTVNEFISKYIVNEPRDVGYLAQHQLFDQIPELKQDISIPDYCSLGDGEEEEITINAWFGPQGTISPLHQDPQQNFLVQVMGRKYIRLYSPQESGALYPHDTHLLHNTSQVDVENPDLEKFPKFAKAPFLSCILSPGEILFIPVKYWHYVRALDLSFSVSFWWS

B1: RCCD1-FLAG (wildtype, pIHZ) (natural protein)
chain: MAEERPGAWFGFGFCGFGQELGSGRGRQVHSPSPLRAGVDICRVSASWSYTAFVTRGGRLELSGSASGAAGRCKDAWASEGLLAVLRAGPGPEALLQVWAAESALRGEPLWAQNVVPEAEGEDDPAGEAQAGRLPLLPCARAYVSPRAPFYRPLAPELRARQLELGAEHALLLDAAGQVFSWGGGRHGQLGHGTLEAELEPRLLEALQGLVMAEVAAGGWHSVCVSETGDIYIWGWNESGQLALPTRNLAEDGETVAREATELNEDGSQVKRTGGAEDGAPAPFIAVQPFPALLDLPMGSDAVKASCGSRHTAVVTRTGELYTWGWGKYGQLGHEDTTSLDRPRRVEYFVDKQLQVKAVTCGPWNTYVYAVEKGKS
binding result: binds
